Results from article PMC2920259 (Nature structural & molecular biology, 2010).

Target: the molecule itself
Experiment: crystal structure

B1: IbpAFic2^H3717A (domain or fragment, Histophilus somni, UniProt Q06277 3482-3797, looked up)
chain: DETANKVNYQDLEDNLNLKGLISLEDDRNANFESNVLKNEKFLDEAREISKKSIPEATVKQMSHLPEFDDILTEGAKKVESRINKAITFRPSVEEFSEIQDLVKTLPKTKVIEDLSTKTNEITEALAATSKTIQRTPELKEQLKTAIEDFLQNSQGKPLTVQMIENLNHGLRPDEGEGRLLYKKENLTKENAVFSSPEAAKIQLAETVDFINRAKNEGIEPSVVGALVYQRLIAYAPFAEGNGRMARVIVNKILLDAGYPAFTKFSDEFEPQIIPQTKASTKSATSSEVVVEFLKELAKKGSKEDNEQNLEKTDRT
binding result: binds
